Molecular target: the molecule itself
Assay: gel filtration over Superdex-200 HR FPLC column (self-association)
Procedure: Approximately 100 μg protein was loaded onto Superdex-200 HR (Pharmacia) FPLC column equilibrated with buffer A (PBS, 4 mM β-mercaptoethanol, 2 mM EDTA), and run for 60 min at 0.5 ml/min. O.D. was measured at 215 nm, and the column profile was obtained by running separately standard marks.
The primary structure of galectin-8 resembles that of galectin-4, namely, two homologous (38% identity) carbohydrate-binding regions (CRDs) linked by a short ≈30-amino acids linking peptide. This unique architecture is shared so far only by two galectins: rat galectin-4 (12) and its *C. elegans* homologue (13). Other galectin types, that contain a single CRD, exist and function as non-covalent dimers, which provides them with the potential to aggregate or agglutinate glycoconjugates. Since galectin-4 exists as a monomer, experiments were carried out to determine whether galectin-8 exists as a monomer or a dimer. […] Hepatic galectin-8 (FIG. 6) has a similar mobility on SDS-PAGE as its recombinant counterpart (FIG. 5).

B1: tag-free recombinant galectin-8 (other)
chain: MLSLSNLQNIIYNPTIPYVSTITEQLKPGSLIVIRGHVPKDSERFQVDFQHGNSLKPRADVAFHFNPRFKRSNCIVCNTLTNEKWGWEEITHDMPFRKEKSFEIVIMVLKNKFHVAVNGKHILLYAHRINPEKIDTLGIFGKVNIHSIGFRFSSDLQSMETSTLGLTQISKENIQKSGKLHLSLPFEARLNASMGPGRTVVVKGEVNTNATSFNVDLVAGRSRDIALHLNPRLNVKAFVRNSFLQDAWGEEERNITCFPFSSGMYFEMIIYCDVREFKVAVNGVHSLEYKHRFKDLSSIDTLAVDGDIRLLDVRSW
binding result: no binding
